PMC4330371, “Interaction between the RNA-dependent ATPase and poly(A) polymerase subunits of the TRAMP complex is mediated by short peptides and important for snoRNA processing” (Nucleic Acids Research, 2015)
Entries after “also recorded” stand apart in the source; their conditions may differ. No end group written: not given here.

B1: Trf5 fragment 98-199: yeast two-hybrid construct of Trf5 residues 98–199 (protein, UniProt P48561 98-199, looked up, fragment)
chain: NNSLEDNQDFIAFSDSSEDETEQIKEDDDERSSFLLTDEHEVSKLTSQQSLNTESACNVEYPWIRNHCHSKQRRIADWLTSEIKDFVHYISPSKNEIKCRNR
modifications: yeast two-hybrid fusion
B2: Trf5 fragment 53-139: yeast two-hybrid construct of Trf5 residues 53–139 (protein, UniProt P48561 53-139, looked up, fragment)
chain: AIDVEDDDTFGNLVLMENDKSDVDIPVIEEVTSSEDEQRAESSKRNNSLEDNQDFIAFSDSSEDETEQIKEDDDERSSFLLTDEHEV
modifications: yeast two-hybrid fusion
B3: Trf5 fragment 53-124: yeast two-hybrid construct of Trf5 residues 53–124 (protein, UniProt P48561 53-124, looked up, fragment)
chain: AIDVEDDDTFGNLVLMENDKSDVDIPVIEEVTSSEDEQRAESSKRNNSLEDNQDFIAFSDSSEDETEQIKED
modifications: yeast two-hybrid fusion
B4: Trf5 fragment 118-199: yeast two-hybrid construct of Trf5 residues 118–199 (protein, UniProt P48561 118-199, looked up, fragment)
chain: TEQIKEDDDERSSFLLTDEHEVSKLTSQQSLNTESACNVEYPWIRNHCHSKQRRIADWLTSEIKDFVHYISPSKNEIKCRNR
modifications: yeast two-hybrid fusion
B5: full-length TAP-tagged Trf5: TAP-tagged full-length Trf5 expressed from the endogenous TRF5 promoter (protein)
chain: MTRLKAKYSPTKGKRKEDKHTKRMRKSSFTRTQKMLEVFNDNRSHFNKYESLAIDVEDDDTFGNLVLMENDKSDVDIPVIEEVTSSEDEQRAESSKRNNSLEDNQDFIAFSDSSEDETEQIKEDDDERSSFLLTDEHEVSKLTSQQSLNTESACNVEYPWIRNHCHSKQRRIADWLTSEIKDFVHYISPSKNEIKCRNRTIDKLRRAVKELWSDADLHVFGSFATDLYLPGSDIDCVVNSRNRDKEDRNYIYELARHLKNKGLAIRMEVIVKTRVPIIKFIEPQSQLHIDVSFERTNGLEAAKLIREWLRDSPGLRELVLIIKQFLHSRRLNNVHTGGLGGFTVICLVYSFLNMHPRIKSNDIDVLDNLGVLLIDFFELYGKNFGYDDVAISISDGYASYIPKSCWRTLEPSRSKFSLAIQDPGDPNNNISRGSFNMKDIKKAFAGAFELLVNKCWELNSATFKDRVGKSILGNVIKYRGQKRDFNDERDLVQNKAIIENERYHKRRTRIVQEDLFINDTEDLPVEEIYKLDEPAKKKQKAKKDKREGEIKKSAIPSPPPDFGVSRSKLKRKVKKTDQGSLLHQNNLSIDDLMGLSENDQESDQDQKGRDTPSGQDEKSPLETKTVDAQTRRDYWLSKGQAL
modifications: left off: TAP, end not stated, kept
notes: TAP-tagged full-length Trf5 expressed from the endogenous TRF5 promoter
B6: Trf5 fragment 83-199: yeast two-hybrid construct of Trf5 residues 83–199 (protein, UniProt P48561 83-199, looked up, fragment)
chain: VTSSEDEQRAESSKRNNSLEDNQDFIAFSDSSEDETEQIKEDDDERSSFLLTDEHEVSKLTSQQSLNTESACNVEYPWIRNHCHSKQRRIADWLTSEIKDFVHYISPSKNEIKCRNR
modifications: yeast two-hybrid fusion
B7: Trf5 fragment 53-184: yeast two-hybrid construct of Trf5 residues 53–184 (protein, UniProt P48561 53-184, looked up, fragment)
chain: AIDVEDDDTFGNLVLMENDKSDVDIPVIEEVTSSEDEQRAESSKRNNSLEDNQDFIAFSDSSEDETEQIKEDDDERSSFLLTDEHEVSKLTSQQSLNTESACNVEYPWIRNHCHSKQRRIADWLTSEIKDFV
modifications: yeast two-hybrid fusion
B8: Trf5 fragment 53-169: yeast two-hybrid construct of Trf5 residues 53–169 (protein, UniProt P48561 53-169, looked up, fragment)
chain: AIDVEDDDTFGNLVLMENDKSDVDIPVIEEVTSSEDEQRAESSKRNNSLEDNQDFIAFSDSSEDETEQIKEDDDERSSFLLTDEHEVSKLTSQQSLNTESACNVEYPWIRNHCHSKQ
modifications: yeast two-hybrid fusion
B9: Trf5 fragment 53-199: yeast two-hybrid construct of Trf5 residues 53–199 (protein)
chain: AIDVEDDDTFGNLVLMENDKSDVDIPVIEEVTSSEDEQRAESSKRNNSLEDNQDFIAFSDSSEDETEQIKEDDDERSSFLLTDEHEVSKLTSQQSLNTESACNVEYPWIRNHCHSKQRRIADWLTSEIKDFVHYISPSKNEIKCRNR
modifications: left off: Gal4 activation domain (from the vector pOAD), end not stated, kept
B10: Trf5 fragment 53-154: yeast two-hybrid construct of Trf5 residues 53–154 (protein, UniProt P48561 53-154, looked up, fragment)
chain: AIDVEDDDTFGNLVLMENDKSDVDIPVIEEVTSSEDEQRAESSKRNNSLEDNQDFIAFSDSSEDETEQIKEDDDERSSFLLTDEHEVSKLTSQQSLNTESAC
modifications: yeast two-hybrid fusion
B11: Trf5 fragment 68-199: yeast two-hybrid construct of Trf5 residues 68–199 (protein, UniProt P48561 68-199, looked up, fragment)
chain: MENDKSDVDIPVIEEVTSSEDEQRAESSKRNNSLEDNQDFIAFSDSSEDETEQIKEDDDERSSFLLTDEHEVSKLTSQQSLNTESACNVEYPWIRNHCHSKQRRIADWLTSEIKDFVHYISPSKNEIKCRNR
modifications: yeast two-hybrid fusion

How the values were obtained:
Format in all cases: cell-based, Saccharomyces cerevisiae
Mtr4 = test: Yeast two-hybrid interaction with Mtr4; set-up: key to Y2H interaction with Mtr4: +: growth on both SC-ADE and SC-HIS supplemented with 10 mM 3-AT; -: a failure to interact; details: for yeast two-hybrid interaction with Mtr4: full-length Mtr4, growth on SC-ADE and SC-HIS; for Y2H interaction with Mtr4: Trf5 fragments, growth on SC-ADE and SC-HIS supplemented with 10 mM 3-AT
Description: (§1) The yeast two-hybrid assays used plasmids pOBD2 and pOAD that were previously described ([28]). The yeast two-hybrid plasmids for Mtr4 (pAV745), Mtr4-archless (pAV746) and Trf5–53–199 (pAV744) have been previously described as have the positive controls that contain MEC3 and RAD17 ([29]). Yeast two-hybrid plasmids with Trf5 residues 68–199 (pAV759), 83–199 (pAV760), 98–199 (pAV761), 118–199 (pAV766), 53–184 (pAV762), 53–169 (pAV763), 53–154 (pAV764), 53–139 (pAV767) and 53–124 (pAV768) were generated similarly to pAV744. Briefly, these regions of TRF5 were PCR amplified with primers that contain PvuII and PstI sites, digested with those restriction enzymes and cloned into pOAD. The yeast two-hybrid plasmids with Trf5 residues 98–117 were generated by cloning oligonucleotides for this region into the PvuII and PstI sites of pOAD.
(§2) Strain trf4Δ/trf5Δ/pRS416-TRF4 has been previously described (MATa, leu2-Δ0, ura3-Δ0, his3-Δ1, met15-Δ0, trf4Δ::NAT, trf5Δ::KAN; [33]). The TRF5 and trf5-Δ98–117 plasmids were introduced by transformation and selection on media lacking leucine. Transformants were then plated on media containing 5FOA to select for cells that had lost the pRS416-TRF4 plasmid. The rrp44-exo^−, rrp44-endo^− and rrp6Δ::KAN strains are isogenic to this strain and have been previously described ([31]). Yeast two-hybrid strains PJ69–4α and PJ69–4a have been previously described ([28],[34]). They are MATα and MATa, respectively, and in addition are both trp1–901, leu2–3,112, ura3–52, his3–200, gal4Δ, gal80Δ, LYS2::GAL1-HIS3, GAL2-ADE2, met2::GAL7-lacZ.
Yeast two-hybrid assays were carried out as previously described ([29]). Briefly, the MTR4 TRP1 plasmids were transformed into PJ69–4α and the TRF5 LEU2 plasmids were transformed into PJ69–4a. Transformants were crossed to each other and diploids that contain both plasmids were selected on SC-TRP-LEU. These diploids were then serially diluted and spotted on SC-TRP-LEU, SC-ADE and SC-HIS media.

Mtr4-archless = test: Yeast two-hybrid interaction with Mtr4-archless; details: growth on SC-ADE and SC-HIS
Description: as §1
as §2, with “Yeast two-hybrid strains PJ69–4α and PJ69–4a have been previously described ([28],[34]). They are MATα and MATa, respectively, and in addition are both trp1–901, leu2–3,112, ura3–52, his3–200, gal4Δ, gal80Δ, LYS2::GAL1-HIS3, GAL2-ADE2, met2::GAL7-lacZ.” left out

endogenous Mtr4 = test: Co-purification of endogenous Mtr4 with TAP-tagged Trf5; details: TAP-tagged Trf5 proteins expressed from endogenous promoter, IgG Sepharose, 2 h at 4°C, IP50/IP150 buffer pH 7.5, western blot with anti-Mtr4
Description: The Trf5-Δ98–117-TAP and Trf5-TAP plasmids are low copy (CEN) plasmids derived from pRS415 ([30]) with the endogenous TRF5 promoter driving expression of Trf5 or Trf5-Δ98–117. The trf5-Δ98–117-TAP plasmid (pAV854) was generated by ligation of three DNA fragments. The first fragment contained the promoter and 5′ end of TRF5 and was generated by PCR with oligonucleotides oAV906 ([…]) and oAV870 ([…]) and digestion with NotI and SpeI. The second fragment contained the 3′ end of TRF5 and was generated by PCR with oligonucleotides oAV871 ([…]) and oAV869 ([…]) and digestion with SpeI and PstI. The third fragment was pAV476 ([31]) digested with NotI and PstI. The TRF5-TAP plasmid (pAV885) was subsequently generated by replacing an XbaI to BstAPI fragment that contained the internal deletion with the corresponding wild-type sequence.
as §2, with “Yeast two-hybrid strains PJ69–4α and PJ69–4a have been previously described ([28],[34]). They are MATα and MATa, respectively, and in addition are both trp1–901, leu2–3,112, ura3–52, his3–200, gal4Δ, gal80Δ, LYS2::GAL1-HIS3, GAL2-ADE2, met2::GAL7-lacZ.” left out

Row | Molecule | Y2H interaction with Mtr4 (Mtr4) | further results
1 | Trf5 98–117: yeast two-hybrid construct with Trf5 residues 98–117, conserved 20 amino acid peptide (NNSLEDNQDFIAFSDSSEDE; also: fused to Gal4 activation domain, end not given here) |  | yeast two-hybrid interaction with Mtr4 (Mtr4): interacts with Mtr4; yeast two-hybrid interaction with Mtr4 (Mtr4; listed as amino acids 98–117 of Trf5): sufficient for interaction with Mtr4; also recorded: indeed interacted with Mtr4; yeast two-hybrid interaction with Mtr4-archless (Mtr4-archless): interacts both with full-length and archless Mtr4
2 | B1 | + | 
3 | B2 | + | 
4 | B3 | + | 
5 | B4 | - | 
6 | B5 |  | co-purification of endogenous Mtr4 (words) (endogenous Mtr4): results in co-purification of endogenous Mtr4; co-purification of endogenous Mtr4 (words) (endogenous Mtr4; listed as full-length Trf5): readily detectable
7 | B6 | + | 
8 | B7 | + | 
9 | B8 | + | 
10 | B9 | + | 
11 | B10 | + | 
12 | B11 | + | 
